Measurements from PMC3039378 (The Journal of Biological Chemistry, 2010).
Each block holds one molecule with its values, some of them ahead of it.

What was measured:
[1] = target: SecA-SecYEG complex with SecYE_(L106C)G cross-linked (106X, back-to-back dimer) in proteoliposomes (E. coli) (UniProt P10408)
[2] = target: SecA-SecYEG complex with SecYE_(L106C)G uncross-linked (106) in proteoliposomes (E. coli) (UniProt P10408)
[3] = target: SecA (wild type) (E. coli) (UniProt P10408)
[4] = target: SecA_(795Fl), SecA_(A795C) labelled with 5-iodoacetamidofluorescein (E. coli) (UniProt P10408); assay: other fluorescence titration
[5] = target: T1, SecY subunit (within wild-type SecYEG) (E. coli, UniProt P0AGA2 1-443); assay: cross-linking
T1 sequence: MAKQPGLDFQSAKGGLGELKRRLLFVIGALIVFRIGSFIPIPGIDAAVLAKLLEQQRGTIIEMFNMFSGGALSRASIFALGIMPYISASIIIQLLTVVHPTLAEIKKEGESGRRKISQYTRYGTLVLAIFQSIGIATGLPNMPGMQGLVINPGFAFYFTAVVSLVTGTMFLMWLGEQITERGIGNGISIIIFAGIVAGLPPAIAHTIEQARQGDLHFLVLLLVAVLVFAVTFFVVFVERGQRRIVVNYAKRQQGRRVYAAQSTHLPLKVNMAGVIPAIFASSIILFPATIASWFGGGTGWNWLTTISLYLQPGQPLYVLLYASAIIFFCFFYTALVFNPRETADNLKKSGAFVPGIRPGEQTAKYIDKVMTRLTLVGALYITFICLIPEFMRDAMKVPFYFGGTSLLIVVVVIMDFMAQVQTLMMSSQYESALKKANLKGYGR

[6] = target: the molecule itself; assay: cross-linking
[7] = target: SecA-SecYEG complex (wild-type SecYEG in proteoliposomes with SecA) (E. coli, UniProt P10408;P0AGA2;P0AG96;P0AG99)

Molecule: proOmpA (full-length, wild type) (from UniProt P0A910 1-346) (natural protein)
Kd [1]: 92 nM
Kd [2]: 93 nM

B2: proOmpA (full-length, wild type) (natural protein)
chain: MKKTAIAIAVALAGFATVAQAAPKDNTWYTGAKLGWSQYHDTGFINNNGPTHENQLGAGAFGGYQVNPYVGFEMGYDWLGRMPYKGSVENGAYKAQGVQLTAKLGYPITDDLDIYTRLGGMVWRADTKSNVYGKNHDTGVSPVFAGGVEYAITPEIATRLEYQWTNNIGDAHTIGTRPDNGMLSLGVSYRFGQGEAAPVVAPAPAPAPEVQTKHFTLKSDVLFNFNKATLKPEGQAALDQLYSQLSNLDPKDGSVVVLGYTDRIGSDAYNQGLSERRAQSVVDYLISKGIPADKISARGMGESNPVTGNTCDNVKQRAALIDCLAPDRRVEIEVKGIKDVVTQPQA
Kd [7]: 72 ± 41 nM

Second part, led by results:

Kd [3]: 78 nM
Kd [4]: < 1 nM
Molecule: SecYE_(L106C)G cross-linked (106X), back-to-back dimer (from UniProt P0AGA2;P0AG96;P0AG99) (complex)

binding result [5]: binds
B1: SecE subunit (within wild-type SecYEG) (natural protein)
chain: MSANTEAQGSGRGLEAMKWVVVVALLLVAIVGNYLYRDIMLPLRALAVVILIAAAGGVALLTTKGKATVAFAREARTEVRKVIWPTRQETLHTTLIVAAVTAVMSLILWGLDGILVRLVSFITGLRF
binding result [6]: binds
